Values of other authors, collected in article PMC11401910, “Dual client binding sites in the ATP-independent chaperone SurA” (Nature Communications, 2024).

Target: OmpX (Escherichia coli) (UniProt P0A917)
Details: cited from earlier work

Sequence of OmpX (Escherichia coli) (P0A917 24-171): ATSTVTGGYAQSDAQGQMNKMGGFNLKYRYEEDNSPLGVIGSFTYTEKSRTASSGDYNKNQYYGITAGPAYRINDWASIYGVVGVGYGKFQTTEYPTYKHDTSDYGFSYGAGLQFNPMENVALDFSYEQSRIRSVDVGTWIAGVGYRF
Sequence of SurA (P0ABZ6 21-428): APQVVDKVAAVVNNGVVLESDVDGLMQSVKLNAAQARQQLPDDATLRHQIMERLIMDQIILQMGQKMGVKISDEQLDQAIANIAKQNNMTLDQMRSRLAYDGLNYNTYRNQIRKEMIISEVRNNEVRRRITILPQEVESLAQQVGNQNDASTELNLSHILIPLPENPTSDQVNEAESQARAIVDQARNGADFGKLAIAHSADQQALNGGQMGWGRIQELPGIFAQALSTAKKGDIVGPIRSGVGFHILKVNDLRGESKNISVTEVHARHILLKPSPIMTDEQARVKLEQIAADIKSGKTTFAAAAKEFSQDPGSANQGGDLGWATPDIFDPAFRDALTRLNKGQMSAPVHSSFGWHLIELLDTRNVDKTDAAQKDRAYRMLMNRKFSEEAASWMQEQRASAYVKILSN

For SurA (from UniProt P0ABZ6), the Kd is listed as 1000 nM.
